Each block holds one molecule with its values, some of them ahead of it.
Key:
diabetic Nuc1 rats = test: retinal function by electroretinography (ERG) in diabetic Nuc1 rats; assay type: in vivo, rat; details: FIGS. 20A-20B
Text: Therefore, βA1-crystallin is a first of its kind inhibitor that can be used as a therapy for DR.

PTP1B [1] = biological target: T1, PTP1B (Homo sapiens, UniProt P18031); test: PTP activity kinetics, Lineweaver Burk plots; assay type: biochemical; details: FIG. 13
T1 sequence (P18031 1-435): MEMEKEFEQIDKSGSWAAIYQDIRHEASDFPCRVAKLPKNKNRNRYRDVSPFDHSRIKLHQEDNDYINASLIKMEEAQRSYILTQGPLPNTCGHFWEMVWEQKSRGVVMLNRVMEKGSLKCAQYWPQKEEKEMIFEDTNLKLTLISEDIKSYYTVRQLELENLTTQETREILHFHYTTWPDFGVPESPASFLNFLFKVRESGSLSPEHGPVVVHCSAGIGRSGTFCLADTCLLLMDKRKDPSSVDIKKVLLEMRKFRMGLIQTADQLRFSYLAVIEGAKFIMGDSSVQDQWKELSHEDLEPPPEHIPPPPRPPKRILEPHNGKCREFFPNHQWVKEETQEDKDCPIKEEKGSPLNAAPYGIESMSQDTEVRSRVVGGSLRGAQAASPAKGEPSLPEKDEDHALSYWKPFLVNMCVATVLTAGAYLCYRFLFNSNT

PTP1B [2] = biological target: T1, PTP1B; test: pull-down assay; assay type: binding
PTP1B [3] = biological target: T2, PTP1B (Rattus norvegicus, UniProt P20417); test: co-immunoprecipitation in astrocytes; details: wild-type astrocytes; binding lost in Nuc1 cells
T2 construct: endogenous in cells; host or cells: astrocytes from wild-type and Nuc1 rats
T2 sequence (P20417 1-432): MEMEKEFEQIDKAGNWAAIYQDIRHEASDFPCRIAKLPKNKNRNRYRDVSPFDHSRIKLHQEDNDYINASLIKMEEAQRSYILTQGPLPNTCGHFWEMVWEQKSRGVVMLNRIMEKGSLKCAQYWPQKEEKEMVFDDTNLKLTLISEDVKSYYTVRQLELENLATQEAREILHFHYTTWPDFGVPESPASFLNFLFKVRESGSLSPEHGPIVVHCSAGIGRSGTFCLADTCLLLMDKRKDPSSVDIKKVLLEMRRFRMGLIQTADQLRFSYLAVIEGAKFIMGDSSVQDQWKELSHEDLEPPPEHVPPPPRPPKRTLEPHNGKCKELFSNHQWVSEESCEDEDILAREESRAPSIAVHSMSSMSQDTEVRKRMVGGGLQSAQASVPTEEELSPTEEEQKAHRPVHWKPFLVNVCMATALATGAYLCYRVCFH

PTP1B [4] = biological target: T1, PTP1B; test: human proteome high-throughput array, βA3/A1-crystallin binding partners; design: purchased CDI Laboratories, Inc; details: human proteome high-throughput array (CDI Laboratories)
NOD-SCID mice [5] = test: retinal sections of injected NOD-SCID mice: hematoxylin-eosin staining and immunofluorescence; assay type: in vivo, mouse
Method: Freshly enucleated eyes were fixed in 2% paraformaldehyde (PFA) for 10 min and then the anterior parts (cornea, lens, and attached iris pigmented epithelium) were removed. The resulting posterior eyecups were fixed in 2% PFA for 1 h at room temperature either for cryosections or RPE/retina flat mount. For cryosections, the eyecups were dehydrated through gradient sucrose solutions and embedded in OCT and for RPE/retina flatmounts, tissues were removed after the eyecup was quartered like a petaloid structure. The resulting eyecup was further cut radially into eight pieces from the optic nerve head to the periphery. Immunostaining on human/mouse retina sections or on retina/RPE flatmounts were performed by using appropriate primary antibody (1:100) and incubated at 4° C. overnight. The RPE/retina flatmounts or human or mouse retina sections were washed with 1×TBS thrice and then stained with appropriate secondary antibodies (1:300) with 1 μg/mL DAPI (Sigma Aldrich, USA) in the dark at room temperature for 2 h. The tissue sections or flatmounts were washed 6 times with 1×TBS. The tissues were mounted on a cover slip with DAKO mounting agent and then visualized under a confocal microscope (Zeiss LSM710, Switzerland).
NOD-SCID mice (NOD.CB17-Prkdescid/J, Jackson Laboratories, USA, male, 4-5 weeks old) were used for the study. A large sample size, n=10, was taken to nullify any experimental anomaly. Mice were anaesthetized and sub-retinal injections of neutrophils from different experimental groups or recombinant LCN-2 protein were given as described previously (Maruotti et al., Proc. Natl. Acad. Sci. USA., 112: 10950-10955 (2015)). […] OCT images were analyzed on optical sections (100 sections per retina) from each eye ranging from −2.0 to +2.0 mm with respect to the optic nerve head (ONH) using the FIJI-ImageJ (NIH) plugin provided with the instrument along with Diver 2.4 software (Bioptigen). […]

Dab2 = biological target: T3, Dab2 (Homo sapiens, UniProt P98082); test: HuProt human proteome microarray, LCN-2 binding partners; details: recombinant LCN-2 probed at 1 μg/mL, Z-score cutoff 6
T3 construct: purchased CDI NextGen Proteomics, MD, USA HuProt v3.1
T3 sequence (P98082 1-770): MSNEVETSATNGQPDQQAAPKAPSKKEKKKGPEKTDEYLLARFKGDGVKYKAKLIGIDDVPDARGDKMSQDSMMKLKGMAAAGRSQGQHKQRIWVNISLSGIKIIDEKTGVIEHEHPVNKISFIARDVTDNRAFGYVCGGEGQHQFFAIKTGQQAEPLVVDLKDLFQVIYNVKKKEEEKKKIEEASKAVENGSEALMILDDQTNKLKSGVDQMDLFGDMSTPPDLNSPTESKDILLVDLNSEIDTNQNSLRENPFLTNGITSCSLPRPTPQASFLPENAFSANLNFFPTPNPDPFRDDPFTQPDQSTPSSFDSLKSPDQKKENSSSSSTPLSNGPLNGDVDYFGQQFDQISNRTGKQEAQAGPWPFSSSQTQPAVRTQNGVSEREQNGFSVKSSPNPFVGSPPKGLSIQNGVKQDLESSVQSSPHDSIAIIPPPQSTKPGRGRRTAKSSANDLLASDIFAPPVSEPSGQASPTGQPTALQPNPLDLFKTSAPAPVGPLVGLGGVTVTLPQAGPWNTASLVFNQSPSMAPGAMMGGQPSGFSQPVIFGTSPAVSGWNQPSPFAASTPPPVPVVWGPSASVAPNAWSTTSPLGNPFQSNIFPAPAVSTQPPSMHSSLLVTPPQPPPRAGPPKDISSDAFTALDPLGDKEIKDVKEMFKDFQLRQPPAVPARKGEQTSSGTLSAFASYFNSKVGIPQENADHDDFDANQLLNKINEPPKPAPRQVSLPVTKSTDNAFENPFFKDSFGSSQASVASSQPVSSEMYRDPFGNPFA
Method: The human proteome microarray 2.0 analysis was performed as a paid service from CDI NextGen Proteomics, MD, USA. Recombinant LCN-2 was analyzed for protein-protein interaction profiling on the HuProt™ v3.1 human proteome array and the sample was probed on array plates at 1 μg/mL, with data analyzed using GenePix software. Hit identification was assessed as the ratio of median value of the foreground to the median of the surrounding background for each protein probe on the microarray, followed by normalization to the median value of all neighboring probes within the […] window size and represented as the significance of the probe binding signal difference from random noise (Z-Score). The cutoff Z-score was 6 in this study for the triplicate analysis; only protein interactions with a Z-score above 6 were considered.
The above-described observations prompted the further investigation of the possible molecular mechanisms by which neutrophils infiltrate into the retina and thereby contribute to the pathogenesis of AMD. It has previously been shown that LCN-2 regulates neutrophil chemotaxis and cell migration in cancer cells (Shao et al., J. Invest. Dermatol., 136, 1418-1428 (2016), and Du et al., Biochim. Biophys. Acta, 1853: 2240-2250 (2015)). […]

NOD-SCID mice [6] = test: sub-retinal injection in NOD-SCID mice, OCT; assay type: in vivo, mouse
Text: NOD-SCID mice (NOD.CB17-Prkdescid/J, Jackson Laboratories, USA, male, 4-5 weeks old) were used for the study. A large sample size, n=10, was taken to nullify any experimental anomaly. Mice were anaesthetized and sub-retinal injections of neutrophils from different experimental groups or recombinant LCN-2 protein were given as described previously (Maruotti et al., Proc. Natl. Acad. Sci. USA., 112: 10950-10955 (2015)). Seven days after treatment, the NOD-SCID mice were anaesthetized by intraperitoneal injection of a ketamine and xylazine mixture and then subjected to Fundus imaging along with OCT analysis using the Bioptigen Envisu R2210 system. OCT images were analyzed on optical sections (100 sections per retina) from each eye ranging from −2.0 to +2.0 mm with respect to the optic nerve head (ONH) using the FIJI-ImageJ (NIH) plugin provided with the instrument along with Diver 2.4 software (Bioptigen). After the experiment, the animals were euthanized with CO2 gas and the eyes were harvested for further experiments. […]

Molecule: PTP1B (pull-down assay and enzyme kinetics)
Lineweaver Burk plots of PTP activity (Km and Vmax) (βA3/A1-crystallin): Cryba1 treatment decreases the Km and Vmax of PTP activity

retinal function (ERG) (diabetic Nuc1 rats): rescues retinal function abnormality
Molecule: CC(C)[C@@H](CC[C@@H](C)[C@H]1CC[C@H]2[C@@H]3[C@H](O)C[C@H]4C[C@@H](NCCCNCCCCNCCCN)CC[C@]4(C)[C@H]3CC[C@]12C)OS(=O)(=O)O [MSI-1436]

mode of PTP1B inhibition (PTP1B [1]): uncompetitive inhibitor of PTP1B | binding to PTP1B (PTP1B [2]): bound to PTP1B | binding partner by co-immunoprecipitation (PTP1B [3]): PTP1B was a binding partner | interaction with PTP1B (PTP1B [4]): interact with PTP1B
B1: βA3/A1-crystallin: two closely related polypeptides encoded by Cryba1, produced by two different translational start sites; biological inhibitor binding PTP1B (protein)
chain: METQTVQRELETLPTTKMAQTNPMPGSMGPWKITIYDQENFQGKRMEFTSSCPNVSERSFDNVRSLKVECGAWIGYEHTSFCGQQFILERGEYPRWDAWSGSNAYHIERLMSFRPICSANHKESKITIFEKENFIGRQWEICDDYPSLQAMGWFNNEVGSMKIQCGAWVCYQYPGYRGYQYILECDHHGGDYKHWREWGTHAQTSQIQSIRRIQQ
Km of PTP activity (PTP1B [1]): decreases | Vmax of PTP activity (PTP1B [1]): decreases

interaction with Dab2 (Dab2): interact with Dab2
B2: recombinant LCN-2: recombinant Lipocalin-2 protein, full length LCN-2 cDNA expressed in E. coli (protein)
chain: QDSTQNLIPAPSLLTVPLQPDFRSDQFRGRWYVVGLAGNAVQKKTEGSFTMYSTIYELQENNSYNVTSILVRDQDQGCRYWIRTFVPSSRAGQFTLGNMHRYPQVQSYNVQVATTDYNQFAMVFFRKTSENKQYFKITLYGRTKELSPELKERFTRFAKSLGLKDDNIIFSVPTDQCIDN
hematoxylin-eosin staining of retinal sections (NOD-SCID mice [5]; NOD-SCID mice, relative to vehicle control or WT neutrophil injected mice): degenerative changes in the outer nuclear layer (ONL) along with photoreceptor layer | thickness of retinal layers from sections by spider plot (NOD-SCID mice [5]; NOD-SCID mice, relative to vehicle or WT neutrophil-treated groups): severe loss or thinning of IS/OS and RPE layers | rhodopsin and RPE 65 staining (photoreceptor and RPE cell loss) (NOD-SCID mice [5]; immunofluorescence, retina of NOD-SCID mice, with respect to controls): reduced staining | OCT retinal structure after injection of WT neutrophils pre-treated with the substance (NOD-SCID mice [6]; NOD-SCID mice injected subretinally, IFNλ 200 U/mL, conditioned media 1:1 diluted, LCN-2 10 pg/mL, FIG. 4(iii)-(v)): apparent changes in the ONL and INL layers (asterisks), concomitant with severe loss of RPE and IS+OS layer | OCT: alterations of retinal layers (NOD-SCID mice [6]; NOD-SCID mice, sub-retinal injection, after 7 days): alterations in the RPE and photoreceptor (inner and outer segments) layers

Source: patent publication US20220332812A1, “TREATMENT METHODS FOR EYE DISORDERS” (University of Pittsburgh - of the Commonwealth System of …, priority 2019, published 2022)
